{
  "source": "the DeepSol protein solubility set",
  "data": [
    {"assay": "soluble on expression in E. coli; label from the status in PepcDB or PDB records", "values": [
      {"sequence": "GPGSMPAYSEVKGTCGTPVLDQLIGYYVNIQSRKMYYKDFLRIEHQAVRWAFADIRKNSEALAHGLLQTGVRPGDRVLAIQPCNCETFVLQLSCAKIGALLCIVPQDTISADKLRFYLNEFQPRHLVAREWINVPEMKQGELVERNMHFWDTIYNVIPELGLSYPGQKFQWVHSQEFYYLKKIIITDHNMNLLGVTPMRKMLVWGPFSYYEQRLRRLSALLHPDDPVLALEDPNPAMEDKLHITYSHRNCVNAGFLFGQLMQLKAETRFGVMPNHHTDPIGAIIAPYAALTSGAVLVHIHSDMFTDDHAINGIEKLCVEEVETLVGRKADFDLILKHAGNFDADQFEHLRSVVIFEDGIEAPVSEEYLNKLSKALSLDDVYVFRGPIEASYMLTWRTLKKGSQGMVPHVEAKVVGDRGTSDAKVLVAGTRGNLRLKGPHVTAGYYNNAGLMTELIDEHGFASTSREAMIDGKDNITLMSAQTY", "soluble on expression in E. coli": "not soluble"},
      {"sequence": "MNVVILDTGCANLNSVKSAIARHGYEPKVSRDPDVVLLADKLFLPGVGTAQAAMDQVRERELFDLIKACTQPVLGICLGMQLLGRRSEESNGVDLLGIIDEDVPKMTDFGLPLPHMGWNRVYPQAGNRLFQGIEDGAYFYFVHSYAMPVNPWTIAQCNYGEPFTAAVQKDNFYGVQFHPERSGAAGAKLLKNFLEM", "soluble on expression in E. coli": "soluble"},
      {"sequence": "MQFTLEHAQDVLSGMPDPTFILSEDGIYIDVFGGTDKKAYHDGSNLIGKTLHSVLEKEQADWFIEQINRSLNQDSIVTIEYKMCADSIQGIDANSGPKGDLYYEGKICPLTINYQGRRVVLILTRNISNRHRVETLLRHQSQI", "soluble on expression in E. coli": "not soluble"},
      {"sequence": "MASCVLTHSPPPPMTAKSPPIPAPSPEQIGLRIRALRKRQKRTLAWLSAQCGLDKGFLSRLERGEKSASVGTLHTVAGALGSSLSALLGEADPQTEIQIVRAADRHRMTTAPGPGEHIYEAITLGSSHSGLSVMVVEVGTHGAHTEAHHGGDELIFVLDGRIRVHFGGHTVLLERDDSVRFPGYLPHSLSAEGRKLARALVVIASG", "soluble on expression in E. coli": "not soluble"},
      {"sequence": "VTAEIRLYITEGEVEDYRVFLERLEQSGLEWRPATPEDADAVIVLAGLWGTRRDEILGAVDLARKSSKPIITVRPYGLENVPPELEAVSSEVVGWNPHCIRDALEDALDVI", "soluble on expression in E. coli": "soluble"},
      {"sequence": "MVSLRELRGGLMSNKYCQALVELRNKPAHELKEVGDQWRTPDNIFWGINTLFGPFVLDLFTDGDNAKCAAYYTAEDNALAHDWSERLAELKGAAFGNPPYPWLEHHHHHH", "soluble on expression in E. coli": "not soluble"},
      {"sequence": "MEYRKVGKWGVKISELSLGSWLTFGKQLDLDTATEVVKKAFNSGINFFDTAEAYAGGIAEAMLGKILKNFRREDLVVSTKIFWGGSGPNDLGLSKKHLLEGTWNSLKRLQMDYVDILYCHRPDPNVPMEEVVFAMDYILREGLALYWGTSEWSAKEIEEAHRVCKELGVMPPIVEQPQYNMFVRERVEKEYAPLYEKYGMGLTTYSPLASGLLSGKYNNGIPEGSRLATFPQVRKWLEEGGLLNEKTFKKLRKLQNIADQLGASLPQLAIAWILKNKNVSSVILGVSRPEQLEENLKAVEIKEKLTEDVMEEIEKILNE", "soluble on expression in E. coli": "soluble"},
      {"sequence": "MKETVTMLNQQYVVPEGLQPYQGVTANSPWLASETEKRRRKICDSLEEAIRRSGLKNGMTISFHHAFRGGDKVVNMVMAKLAEMGFRDLTLASSSLIDAHWPLIEHIKNGVVRQIYTSGLRGKLGEEISAGLMENPVQIHSHGGRVKLIQSGELNIDVAFLGVPCCDEFGNANGFSGKSRCGSLGYAQVDAQYAKCVVLLTEEWVEFPNYPASIAQDQVDLIVQVDEVGDPEKITAGAIRLSSNPRELLIARQAANVIEHSGYFCDGFSLQTGTGGASLAVTRFLEDKMRRHNITASFGLGGITGTMVDLHEKGLIKALLDTQSFDGDAARSLAQNPHHIEISTNQYANPASKGAACERLNVVMLSALEIDVNFNVNVMTGSNGVLRGASGGHSDTAAGADLTIITAPLVRGRIPCVVEKVLTTVTPGASVDVLVTDHGIAVNPARQDLLDNLRAAGVALMTIEQLQQRAEQLTGKPQPIEFTDRVVAVVRYRDGSVIDVIRQVKG", "soluble on expression in E. coli": "soluble"},
      {"sequence": "MKEKDLIRFMDRMIEERKAEYALGTAHIYQASRNALSAFLKAHDIPFKRVRPELLKQFERFLRRRGNSWNTVSTYMRVLRAVYNRAVDRRLAPHVPHLFKAVYTGTQADIKRALKAEEMGQLLDTKCTRKQSELLQKTHHLFVLMFLLRGLPFVDLAYIQKKDLNGNILTYHRRKTGRQITITVTKDAMNIIREYMDTTTESPYLFPILSAEGGEDTIYREYQQALRIFNYQLTKLGELLGLTTELTSYTARHTWATLAYYLEVHPGIIREAMGHSSIKVTETYLKPFNIKKLDETNLSIIGYAKRSFEG", "soluble on expression in E. coli": "not soluble"},
      {"sequence": "QTGVQTNTPFGSGEDSIRCRQNISLFTSYAKTGNYKDAYDFWEKAYEECPASTKNIYIYGVKISEWRLQNEQDPAKRQQIIDKILKLYDDRVKYFGEDPKYGTDYIMASKISDYMQYMGDKTDYDKVYEWIKPTIDQHGENATPRALFYYAYSSLNKAIRNEAWHETYIKDYTFASQAMEKQLEVADEKGKEFIQPLKTQIDELFAQSGLADCNTLVKMYGDKLEENKTDTTFLKNMLGMFHASDCETHPLYFQANK", "soluble on expression in E. coli": "not soluble"},
      {"sequence": "MRTHDDTWDIKTSVGTTAVMVAAARAAETDRPDALIRDPYAKLLVTNTGAGALWEAMLDPSMVAKVEAIDAEAAAMVEHMRSYQAVRTNFFDTYFNNAVIDGIRQFVILASGLDSRAYRLDWPTGTTVYEIDQPKVLAYKSTTLAEHGVTPTADRREVPIDLRQDWPPALRSAGFDPSARTAWLAEGLLMYLPATAQDGLFTEIGGLSAVGSRIAVETSPLHGDEWREQMQLRFRRVSDALGFEQAVDVQELIYHDENRAVVADWLNRHGWRATAQSAPDEMRRVGRWGDGVPMADDKDAFAEFVTAHRL", "soluble on expression in E. coli": "soluble"},
      {"sequence": "MGKSYKEIIELLDCNQTTIWRNVKKYEEFGLDSLLQETRGGRNHAYMTVEEEKAFLARHLKATEAGEFVTIDALFQVYKKECG", "soluble on expression in E. coli": "not soluble"},
      {"sequence": "MSAAGVRSTRQRAAISTLLETLDDFRSAQELHDELRRRGENIGLTTVYRTLQSMASSGLVDTLHTDTGESVYRRCSEHHHHHLVCRSCGSTIEVGDHEVEAWAAEVATKHGFSDVSHTIEIFGTCSDCRS", "soluble on expression in E. coli": "soluble"},
      {"sequence": "MVAQQKNLEGYVGFANLPNQVYRKSVKRGFEFTLMVVGESGLGKSTLINSLFLTDLYSPEYPGPSHRIKKTVQVEQSKVLIKEGGVQLLLTIVDTPGFGDAVDNSNCWQPVIDYIDSKFEDYLNAESRVNRRQMPDNRVQCCLYFIAPSGHGLKPLDIEFMKRLHEKVNIIPLIAKADTLTPEECQQFKKQIMKEIQEHKIKIYEFPETDDEEENKLVKKIKDRLPLAVVGSNTIIEVNGKRVRGRQYPWGVAEVENGEHCDFTILRNMLIRTHMQDLKDVTNNVHYENYRSRKLAAVTYNGVDNNKNKGQLTKSPLAQMEEERREHVAKMKKMEMEMEQVFEMKVKEKVQKLKDSEAELQRRHEQMKKNLEAQHKELEEKRRQFEDEKANWEAQQRILEQQNSSRTLEKNKKKGKIF", "soluble on expression in E. coli": "soluble"},
      {"sequence": "MSLTITVLQGGNVLDLERGVLLEHHHVVIDGERIVEVTDRPVDLPNAQAIDVRGKTVMPGFIDCHVHVLASNANLGVNATQPNILAAIRSLPILDAMLSRGFTSVRDAGGADWSLMQAVETGLVSGPRIFPSGKALSQTGGHGDFRPRGDLLEPCSCCFRTGAIARVVDGVEGVRLAVREEIQKGATQIKIMASGGVASPTDPIANTQYSEDEIRAIVDEAEAANTYVMAHAYTGRAIARAVRCGVRTIEHGNLVDEAAAKLMHEHGAFVVPTLVTYDALAKHGAEFGMPPESVAKVASVQQKGRESLEIYANAGVKMGFGSDLLGEMHAFQSGEFRIRAEVLGNLEALRSATTVAAEIVNMQGQLGVIAVGAIADLVVLDGNPLEDIGVVADEGARVEYVLQRGTLVKRQAAGREGHHHHHH", "soluble on expression in E. coli": "soluble"},
      {"sequence": "MGSDKIHHHHHHMQLKLSSVSKKFDHKIILEDTSFTFEQGKIYGLLGRNGAGKTTLFNCIARNLTLDGGSIQFVKDEIAFDYDNTDIGFTQTYPQLPAFMTAYEFVRFYMDIHKDKLKSPRSPEEWLNLVGIGEEDRHRLLKDFSHGMQNKVQLLLSLIVQPPVLLLDEPLTSFDPVAAHEFKQLIREAKKDSVIIFSTHILQLAQDLCDEIVLLHHQELQAVPSDKLHDPDFEQEVVTLLTAD", "soluble on expression in E. coli": "not soluble"},
      {"sequence": "MGSDKIHHHHHHMPSGGVLPVGVHATPMSVREEFDEWAASGRDKGMEDRHWHTAKDVLARMPVEDDDTVLDLGTGSGYAVRALRERGVARGYGLDGAPEMAANARTYTDDDDLAYVVGDFGSLPFADDAIDHVFSFEAFYYASDPRETLAEIRRVLKSGGTFYCGVNYYEENVHSHDWQDSISVEMTRWDRATYREAFRGAGLHVAAQDLIADTEIDIPAASEFPHEGFDSRADMVERYRTFGTLLTVGVAP", "soluble on expression in E. coli": "not soluble"},
      {"sequence": "MGSDKIHHHHHHMKRENLHQPFEISFSEFDESMLKEHDHTFFELVYILSGTGIQWINNNKFSYHGGHLFMITPGDSHSFEIHSTTKFIDIKFNDIYIHSAVFGTENIKRLEFILQHANHQPGCILRNRTDKLLVKPMIEAIIREYVNRNLYSKEIITQLINTIIIVVARNIAMFLPEQVNECSEEKSLGILQYIQTYIYQSEKIKTKAISQHFGISENYLGRYFKKHTNETMQQYILNYKLKLVENRLLHSEMRISEIVAELGFTDESHLNKLFKKYRGCSPTNFRKNNAV", "soluble on expression in E. coli": "not soluble"},
      {"sequence": "GPGSMNNRHSGSEKTPATQKKDSLAPSATNADITKVKICSGHTRPICHINYSNIIDGTFWLVTSCHDAKPMLRNGETGDWVGTFEGHKGAVYCSVFNEDATRLVTGSGDYSSMVWNAVTGDKLHTWSHPKYIKSCDWCGNKIATGCVDGLVRIFDAQAYDANPVCFDSTEKVNQVKATYFIDHTTMVTACENTIMKWDLRDTSLPYLRKEIPGLNFLEYTHSNSIVAAHEKSISFIDTTSLEIKSSFTTSDDIECASLSPNGQNVAAGSKLKAKEFTVDGTELESHRGHHGPIFHIRWAPDGKSFTSGAEDGMARIWPSHDIIETYDNEN", "soluble on expression in E. coli": "not soluble"},
      {"sequence": "MAHHHHHHMDTEAIKETAIREVCELSKTLKGTPFAITQRWKHIEALISTFERLLRRLELINLLCCEDEDSVSILKLYTQSQIASLEVLMKALMERGPNAAAFAAYAAGRLDEFVAVFTQSVGKTPRTNACVIADSGMRRWDQAAANGCEHNVVGNAAQNFLDLEVLLKTTLLTRGNQKGESKQCPLTKSDLSGYATVDDAPDRIKWAGGLLTVHKMYGWKEDGWSTNGRNVEFIKEAAEQFKEIKKVLEKQLPNGLDSIDALNAFLKREEPDAMMKDAIKTHQGWEEEKDDKTIIEKIKEIFGIGEPCAKIEFIETLIRTNVSARESGCTKQIDLFQLTTRQMEEVKERRLDQLRKTKTEAENYPRDMAKLSALKTNTNTKQGEYGECQFLCKRYKNAKAENEATDAAPNSPAAARKCRGKTENDCKDECKWDGNVCKNSDETSDYSRVCYSPLFPVLLLSLF", "soluble on expression in E. coli": "not soluble"}
    ]}
  ]
}
